Source: patent publication US9377466B2, “Compounds and methods” (Modpro AB, priority 2010, dated 2016)
Ends that are not written are not given here.

Experiments:
[1] = CD spectroscopy, mean residue ellipticity of the sixteen scaffold polypeptides; format: physicochemical; conditions: error ±1000; for [θ]222 at high concentration: high concentration 30-230 μM as listed per peptide; for [θ]222 at low concentration: low concentration 1-5 μM as listed per peptide
Description: The mean residue ellipticities at 222 nm, [θ]222, □ of the sixteen scaffold polypeptides were recorded at two concentrations, approximately 30 μM and approximately 1 μM, to characterize the state of aggregation, cf.
The degree of helix formation is related to the monomer-dimer equilibrium since monomers are unordered with low helical content whereas dimers are highly helical. […] While the ^1H NMR spectra have not been recorded of all sequences and of all polypeptide conjugates, it is likely that the sequences presented here are best described as molten globules.

[2] = tested on: thymidine kinase (TK); experiment: Binding studies with TK in the presence of ATP (fluorescence, MALDI-TOF); conditions: for binding affinity to TK (in words): 1, 2 and 3 eq. TK, buffer with and without ATP; for time after which peptide is fully phosphorylated (MALDI-TOF): TK, buffer with ATP
Description: The fluorescence intensities were measured in presence of 1, 2 and 3 eq. TK in buffer with and without ATP. The introduction of ATP represents a realistic measurement situation as it is present in biological samples and is likely to react with the probe in the presence of TK. Data were collected 15 min, 45 min and 2 hrs after adding the enzyme. The samples for MALDI-TOF were collected appr. 5 mins, 45 mins and 2 hours after adding the enzyme to measure the change in masses.

binding affinity to TK (in words) [2]	time after which peptide is fully phosphorylated (MALDI-TOF) [2] [min]	Substance	[θ]222 at high concentration [1] [deg cm^2 dmol^−1]	[θ]222 at low concentration [1] [deg cm^2 dmol^−1]
		1-C10L17: SEQ ID NO: 5 NAADLEAAIKHLAEALKERGPEDCEQLAEQLARAFEAFARAG	−18200	−11800
		1-C15L8: SEQ ID NO: 1 NEADLEAKIRHLAEKLEARGPEDAEQLAEQLARAFEAFARAG	−17800	−25100
		1-C25L22: SEQ ID NO: 9 NEADLEAAIRHLAEALEARGPKDAKQLAEQLARAFEAFERAG	−24800	−18000
		2-C10L17: SEQ ID NO: 6 NAADLEAAIKHLAEALKARGPVDAAQLAEQLARAFEAFARAG	−23400	−20400
		2-C15L8: SEQ ID NO: 2 NEADLEAKIRHLAEKLAARGPVDAAQLAEQLARAFEAFARAG	−24900	−20800
		2-C25L22: SEQ ID NO: 10 NEADLEAAIRHLAEALAARGPKDAKQLAEQLARAFEAFARAG	−25000	−24800
		2-C37L34: SEQ ID NO: 14 NAADLEAAIRHLAERLAARGPVDAAQLAEQLAAKFEKFARAG	−23900	−30300
		3-C10L17: SEQ ID NO: 7 NAADLEARIKHLAERLKARGPVDAAQLAEQLARAFEAFARAG	−22400	−20700
good but not as good as for 4-C10L17-dT	45	3-C15L8-dT: polypeptide 3-C15L8 conjugated to deoxy-thymidine (dT) probe 19 (NAADLEAKIRHLAEKLAARGPVDAAQLAEQLARRFEAFARAG; also: conjugated to deoxy-thymidine (dT) probe 19, site not given here)		
		3-C15L8: SEQ ID NO: 3 NAADLEAKIRHLAEKLAARGPVDAAQLAEQLARRFEAFARAG	−23400	−19700
		3-C25L22: SEQ ID NO: 11 NAADLEAAIRHLAERLAARGPKDAKQLAEQLARAFEAFARAG	−26400	−23000
		3-C37L34: SEQ ID NO: 15 NAADLEAAIRHLAERLAARGPVDAAQLAEQLARKFEKFARAG	−22500	−22200
strong binding affinity	45	4-C10L17-dT: polypeptide 4-C10L17 conjugated to deoxy-thymidine (dT) probe 19 (NAADLEARIKHLRERLKARGPRDAAQLAEQLARAFERFARAG; also: conjugated to deoxy-thymidine (dT) probe 19, site not given here)		
		4-C15L8: SEQ ID NO: 4 NAADLEAKIRHLREKLAARGPRDAAQLAEQLARRFERFARAG	−22000	−15300
		4-C25L22: SEQ ID NO: 12 NAADLEARIRHLRERLAARGPKDAKQLAEQLARAFERFARAG	−23700	−18200
		4-C37L34: SEQ ID NO: 16 NAADLEARIRHLRERLAARGPRDAAQLAEQLARKFEKFARAG	−19600	−14900
